Reference: PMC11574045, “A cofactor-induced repressive type of transcription factor condensation can be induced by synthetic peptides to suppress tumorigenesis” (The EMBO Journal, 2024)

system: HEK293FT cells transfected with TF library; assay: Screening of TF condensates based on fluorescent puncta; assay type: cell-based; conditions: Figure 1B numerical data; TF library screen, one value per transcriptional factor
Summary of the method: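 Each TF construct was introduced into HEK293FT cells using PEI at 4.8 μg/ml; glucose deprivation versus normal medium lasted 12 h. Automated confocal-style imaging of tagged TF staining, 50 fields per well, gave the puncta data.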

| Molecule | Z score of condensed fraction |
| --- | --- |
| POU3F4 (protein, UniProt P49335 1-361, looked up) POU domain, class 3, …: MATAASNPYSILSSTSLVHADSAGMQQGSPFRNPQKLLQSDYLQGVPSNGHPLGHHWVTSLSDGGPWSSTLATSPLDQQDVKPGREDLQLGAIIHHRSPHVAHHSPHTNHPNAWGASPAPNPSITSSGQPLNVYSQPGFTVSGMLEHGGLTPPPAAASAQSLHPVLREPPDHGELGSHHCQDHSDEETPTSDELEQFAKQFKQRRIKLGFTQADVGLALGTLYGNVFSQTTICRFEGLQLSFKNMCKLKPLLNKWLEEADSSTGSPTSIDKIAAQGRKRKKRTSIEVSVKGVLETHFLKCPKPAAQEISSLADSLQLEKEVVRVWFCNRRQKEKRMTPPGDQQPHEVYSHTVKTDTSCHDL | -0.484 |
| BACH1 (protein, UniProt O14867 1-736, looked up) Transcription regulator …: MSLSENSVFAYESSVHSTNVLLSLNDQRKKDVLCDVTIFVEGQRFRAHRSVLAACSSYFHSRIVGQADGELNITLPEEVTVKGFEPLIQFAYTAKLILSKENVDEVCKCVEFLSVHNIEESCFQFLKFKFLDSTADQQECPRKKCFSSHCQKTDLKLSLLDQRDLETDEVEEFLENKNVQTPQCKLRRYQGNAKASPPLQDSASQTYESMCLEKDAALALPSLCPKYRKFQKAFGTDRVRTGESSVKDIHASVQPNERSENECLGGVPECRDLQVMLKCDESKLAMEPEETKKDPASQCPTEKSEVTPFPHNSSIDPHGLYSLSLLHTYDQYGDLNFAGMQNTTVLTEKPLSGTDVQEKTFGESQDLPLKSDLGTREDSSVASSDRSSVEREVAEHLAKGFWSDICSTDTPCQMQLSPAVAKDGSEQISQKRSECPWLGIRISESPEPGQRTFTTLSSVNCPFISTLSTEGCSSNLEIGNDDYVSEPQQEPCPYACVISLGDDSETDTEGDSESCSAREQECEVKLPFNAQRIISLSRNDFQSLLKMHKLTPEQLDCIHDIRRRSKNRIAAQRCRKRKLDCIQNLESEIEKLQSEKESLLKERDHILSTLGETKQNLTGLCQKVCKEAALSQEQIQILAKYSAADCPLSFLISEKDKSTPDGELALPSIFSLSDRPPAVLPPCARGNSEPGYARGQESQQMSTATSEQAGPAEQCRQSGGISDFCQQMTDKCTTDE | -0.5247 |
| PPARD (protein, UniProt Q03181 1-441, looked up) Peroxisome …: MEQPQEEAPEVREEEEKEEVAEAEGAPELNGGPQHALPSSSYTDLSRSSSPPSLLDQLQMGCDGASCGSLNMECRVCGDKASGFHYGVHACEGCKGFFRRTIRMKLEYEKCERSCKIQKKNRNKCQYCRFQKCLALGMSHNAIRFGRMPEAEKRKLVAGLTANEGSQYNPQVADLKAFSKHIYNAYLKNFNMTKKKARSILTGKASHTAPFVIHDIETLWQAEKGLVWKQLVNGLPPYKEISVHVFYRCQCTTVETVRELTEFAKSIPSFSSLFLNDQVTLLKYGVHEAIFAMLASIVNKDGLLVANGSGFVTREFLRSLRKPFSDIIEPKFEFAVKFNALELDDSDLALFIAAIILCGDRPGLMNVPRVEAIQDTILRALEFHLQANHPDAQYLFPKLLQKMADLRQLVTEHAQMMQRIKKTETETSLHPLLQEIYKDMY | -0.9649 |
| POU4F1 (protein, UniProt Q01851 1-419, looked up) POU domain, class 4, …: MMSMNSKQPHFAMHPTLPEHKYPSLHSSSEAIRRACLPTPPLQSNLFASLDETLLARAEALAAVDIAVSQGKSHPFKPDATYHTMNSVPCTSTSTVPLAHHHHHHHHHQALEPGDLLDHISSPSLALMAGAGGAGAAAGGGGAHDGPGGGGGPGGGGGPGGGPGGGGGGGPGGGGGGPGGGLLGGSAHPHPHMHSLGHLSHPAAAAAMNMPSGLPHPGLVAAAAHHGAAAAAAAAAAGQVAAASAAAAVVGAAGLASICDSDTDPRELEAFAERFKQRRIKLGVTQADVGSALANLKIPGVGSLSQSTICRFESLTLSHNNMIALKPILQAWLEEAEGAQREKMNKPELFNGGEKKRKRTSIAAPEKRSLEAYFAVQPRPSSEKIAAIAEKLDLKKNVVRVWFCNQRQKQKRMKFSATY | -0.7489 |
| POU5F2 (protein, UniProt Q8N7G0 1-328, looked up) POU domain, class 5, …: MAGHRPSNHFCPLPGSGGGGPRGPMPLRVDTLTWLSTQAAPGRVMVWPAVRPGICPGPDVWRIPLGPLPHEFRGWIAPCRPRLGASEAGDWLRRPSEGALPGPYIALRSIPKLPPPEDISGILKELQQLAKELRQKRLSLGYSQADVGIAVGALFGKVLSQTTICRFEAQQLSVANMWKLRPLLKKWLKEVEAENLLGLCKMEMILQQSGKWRRASRERRIGNSLEKFFQRCPKPTPQQISHIAGCLQLQKDVVRVWFYNRSKMGSRPTNDASPREIVGTAGPPCPGAPVCFHLGLGLPVDIPHYTRLYSAGVAHSSAPATTLGLLRF | 1.226 |
| POU3F1 (protein, UniProt Q03052 1-451, looked up) POU domain, class 3, …: MATTAQYLPRGPGGGAGGTGPLMHPDAAAAAAAAAAAERLHAGAAYREVQKLMHHEWLGAGAGHPVGLAHPQWLPTGGGGGGDWAGGPHLEHGKAGGGGTGRADDGGGGGGFHARLVHQGAAHAGAAWAQGSTAHHLGPAMSPSPGASGGHQPQPLGLYAQAAYPGGGGGGLAGMLAAGGGGAGPGLHHALHEDGHEAQLEPSPPPHLGAHGHAHGHAHAGGLHAAAAHLHPGAGGGGSSVGEHSDEDAPSSDDLEQFAKQFKQRRIKLGFTQADVGLALGTLYGNVFSQTTICRFEALQLSFKNMCKLKPLLNKWLEETDSSSGSPTNLDKIAAQGRKRKKRTSIEVGVKGALESHFLKCPKPSAHEITGLADSLQLEKEVVRVWFCNRRQKEKRMTPAAGAGHPPMDDVYAPGELGPGGGGASPPSAPPPPPPAALHHHHHHTLPGSVQ | -0.6601 |
| POU2AF1 (protein, UniProt Q16633 1-256, looked up) POU domain class …: MLWQKPTAPEQAPAPARPYQGVRVKEPVKELLRRKRGHASSGAAPAPTAVVLPHQPLATYTTVGPSCLDMEGSVSAVTEEAALCAGWLSQPTPATLQPLAPWTPYTEYVPHEAVSCPYSADMYVQPVCPSYTVVGPSSVLTYASPPLITNVTTRSSATPAVGPPLEGPEHQAPLTYFPWPQPLSTLPTSTLQYQPPAPALPGPQFVQLPISIPEPVLQDMEDPRRAASSLTIDKLLLEEEDSDAYALNHTLSVEGF | 2.502 |
| POU3F2 (protein, UniProt P20265 1-443, looked up) POU domain, class 3, …: MATAASNHYSLLTSSASIVHAEPPGGMQQGAGGYREAQSLVQGDYGALQSNGHPLSHAHQWITALSHGGGGGGGGGGGGGGGGGGGGGDGSPWSTSPLGQPDIKPSVVVQQGGRGDELHGPGALQQQHQQQQQQQQQQQQQQQQQQQQQRPPHLVHHAANHHPGPGAWRSAAAAAHLPPSMGASNGGLLYSQPSFTVNGMLGAGGQPAGLHHHGLRDAHDEPHHADHHPHPHSHPHQQPPPPPPPQGPPGHPGAHHDPHSDEDTPTSDDLEQFAKQFKQRRIKLGFTQADVGLALGTLYGNVFSQTTICRFEALQLSFKNMCKLKPLLNKWLEEADSSSGSPTSIDKIAAQGRKRKKRTSIEVSVKGALESHFLKCPKPSAQEITSLADSLQLEKEVVRVWFCNRRQKEKRMTPPGGTLPGAEDVYGGSRDTPPHHGVQTPVQ | -0.6292 |
| POLR3C (protein, UniProt Q9BUI4 1-534, looked up) DNA-directed RNA polymerase …: MTQAEIKLCSLLLQEHFGEIVEKIGVHLIRTGSQPLRVIAHDTGTSLDQVKKALCVLVQHNLVSYQVHKRGVVEYEAQCSRVLRMLRYPRYIYTTKTLYSDTGELIVEELLLNGKLTMSAVVKKVADRLTETMEDGKTMDYAEVSNTFVRLADTHFVQRCPSVPTTENSDPGPPPPAPTLVINEKDMYLVPKLSLIGKGKRRRSSDEDAAGEPKAKRPKYTTDNKEPIPDDGIYWQANLDRFHQHFRDQAIVSAVANRMDQTSSEIVRTMLRMSEITTSSSAPFTQPLSSNEIFRSLPVGYNISKQVLDQYLTLLADDPLEFVGKSGDSGGGMYVINLHKALASLATATLESVVQERFGSRCARIFRLVLQKKHIEQKQVEDFAMIPAKEAKDMLYKMLSENFMSLQEIPKTPDHAPSRTFYLYTVNILSAARMLLHRCYKSIANLIERRQFETKENKRLLEKSQRVEAIIASMQATGAEEAQLQEIEEMITAPERQQLETLKRNVNKLDASEIQVDETIFLLESYIECTMKRQ | 2.0488 |
| POU2F2 (protein, UniProt P09086 1-479, looked up) POU domain, class 2, …: MVHSSMGAPEIRMSKPLEAEKQGLDSPSEHTDTERNGPDTNHQNPQNKTSPFSVSPTGPSTKIKAEDPSGDSAPAAPLPPQPAQPHLPQAQLMLTGSQLAGDIQQLLQLQQLVLVPGHHLQPPAQFLLPQAQQSQPGLLPTPNLFQLPQQTQGALLTSQPRAGLPTQAVTRPTLPDPHLSHPQPPKCLEPPSHPEEPSDLEELEQFARTFKQRRIKLGFTQGDVGLAMGKLYGNDFSQTTISRFEALNLSFKNMCKLKPLLEKWLNDAETMSVDSSLPSPNQLSSPSLGFDGLPGRRRKKRTSIETNVRFALEKSFLANQKPTSEEILLIAEQLHMEKEVIRVWFCNRRQKEKRINPCSAAPMLPSPGKPASYSPHMVTPQGGAGTLPLSQASSSLSTTVTTLSSAVGTLHPSRTAGGGGGGGGAAPPLNSIPSVTPPPPATTNSTNPSPQGSHSAIGLSGLNPSTGPGLWWNPAPYQP | -0.2237 |
| PQBP1 (protein, UniProt O60828 2-265, looked up) Polyglutamine-binding protein …: PLPVALQTRLAKRGILKHLEPEPEEEIIAEDYDDDPVDYEATRLEGLPPSWYKVFDPSCGLPYYWNADTDLVSWLSPHDPNSVVTKSAKKLRSSNADAEEKLDRSHDKSDRGHDKSDRSHEKLDRGHDKSDRGHDKSDRDRERGYDKVDRERERDRERDRDRGYDKADREEGKERRHHRREELAPYPKSKKAVSRKDEELDPMDPSSYSDAPRGTWSTGLPKRNEAKTGADTTAAGPLFQQRPYPSPGAVLRANAEASRTKQQD | -0.5347 |
| POU3F3 (protein, UniProt P20264 1-500, looked up) POU domain, class 3, …: MATAASNPYLPGNSLLAAGSIVHSDAAGAGGGGGGGGGGGGGGAGGGGGGMQPGSAAVTSGAYRGDPSSVKMVQSDFMQGAMAASNGGHMLSHAHQWVTALPHAAAAAAAAAAAAVEASSPWSGSAVGMAGSPQQPPQPPPPPPQGPDVKGGAGRDDLHAGTALHHRGPPHLGPPPPPPHQGHPGGWGAAAAAAAAAAAAAAAAHLPSMAGGQQPPPQSLLYSQPGGFTVNGMLSAPPGPGGGGGGAGGGAQSLVHPGLVRGDTPELAEHHHHHHHHAHPHPPHPHHAQGPPHHGGGGGGAGPGLNSHDPHSDEDTPTSDDLEQFAKQFKQRRIKLGFTQADVGLALGTLYGNVFSQTTICRFEALQLSFKNMCKLKPLLNKWLEEADSSTGSPTSIDKIAAQGRKRKKRTSIEVSVKGALESHFLKCPKPSAQEITNLADSLQLEKEVVRVWFCNRRQKEKRMTPPGIQQQTPDDVYSQVGTVSADTPPPHHGLQTSVQ | 1.399 |
